For one substance, apoptosis-inducing activity relative to IleZip-shFasL (WST-1 assay, Jurkat cells) and apoptosis-inducing activity relative to shFasL (WST-1 assay, Jurkat cells) results are on record in US20040053249A1.

This assay has as its target Fas on Jurkat cells (cell line from human T cell) (human) (UniProt P25445). Description: cell-based or functional assay.
UniProt P25445, sequence (P25445 26-335): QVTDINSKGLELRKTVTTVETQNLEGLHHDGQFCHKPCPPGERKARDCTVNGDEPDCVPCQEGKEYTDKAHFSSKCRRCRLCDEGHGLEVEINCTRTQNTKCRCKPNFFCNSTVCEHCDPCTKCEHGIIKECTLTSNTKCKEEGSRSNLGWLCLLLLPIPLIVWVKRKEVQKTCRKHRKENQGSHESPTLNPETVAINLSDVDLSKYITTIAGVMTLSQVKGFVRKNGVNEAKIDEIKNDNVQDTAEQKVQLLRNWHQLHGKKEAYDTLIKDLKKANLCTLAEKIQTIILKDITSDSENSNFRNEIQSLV

The substance “FLAG-IleZip-shFasL (pM1815), fusion protein of FLAG peptide, leucine zipper and the extracellular domain of human Fas ligand” registered an apoptosis-inducing activity relative to IleZip-shFasL (WST-1 assay, Jurkat cells) of 10 times and an apoptosis-inducing activity relative to shFasL (WST-1 assay, Jurkat cells) of 100 times.
